# Measurements from IntAct's records for PubMed 16477026.
# B1: Effector protein HopAB2 (Pseudomonas syringae pv. tomato (strain DC3000)), Q8RSY1 (parent)
# chain: MAGINRAGPSGAYFVGHTDPEPVSGQAHGSGSGASSSNSPQVQPRPSNTPPSNAPAPPPTGRERLSRSTALSRQTREWLEQGMPTAEDASVRRRPQVTADAATPRAEARRTPEATADASAPRRGAVAHANSIVQQLVSEGADISHTRNMLRNAMNGDAVAFSRVEQNIFRQHFPNMPMHGISRDSELAIELRGALRRAVHQQAASAPVRSPTPTPASPAASSSGSSQRSLFGRFARLMAPNQGRSSNTAASQTPVDRSPPRVNQRPIRVDRAAMRNRGNDEADAALRGLVQQGVNLEHLRTALERHVMQRLPIPLDIGSALQNVGINPSIDLGESLVQHPLLNLNVALNRMLGLRPSAERAPRPAVPVAPATASRRPDGTRATRLRVMPEREDYENNVAYGVRLLNLNPGVGVRQAVAAFVTDRAERPAVVANIRAALDPIASQFSQLRTISKADAESEELGFKDAADHHTDDVTHCLFGGELSLSNPDQQVIGLAGNPTDTSQPYSQEGNKDLAFMDMKKLAQFLAGKPEHPMTRETLNAENIAKYAFRIVP
# Variants of: B1
# Conditions: with rs27a_sollc UBI3, P62980
row,Variant,effect of a mutation on the interaction
1,K512R;K529R,decreasing interaction strength
